Laboratory results published in US20190381171A1, “CO-USE OF ANTI-BCMA ANTIBODY AND ANTIBODY-COUPLED T CELL RECEPTOR (ACTR) IN CANCER THERAPY AND B CELL DISORDERS” (UNUM THERAPEUTICS INC., priority 2017, published 2019).

Tests used:
NCI-H929 target cells = experiment: ACTR T-cell cytokine release (IFNγ, IL2; Meso Scale Discovery) in co-culture with target cells and antibody; assay type: cell-based, human; conditions: T-cells expressing ACTR variant SEQ ID NO: 1, E:T 4:1, 24 hours, increasing antibody concentration (FIG. 4 chimeric, FIG. 9 humanized)
Protocol: T-cells expressing ACTR variant SEQ ID NO: 1 (effector; E) and target cells (target; T) were incubated at a 4:1, effector-to-target ratio (120,000 T cells; 30,000 target cells) with increasing concentrations of various chimeric antibodies in a 200-μL reaction volume in RPMI 1640 media supplemented with 10% fetal bovine serum. In FIG. 4, the chimeric antibodies included fucosylated and afucosylated (SEA) versions of the SG16.17 and SG16.45 anti-BCMA antibodies at a concentration range of 100-0.0005 μg/mL. In FIG. 9, humanized afucosylated (SEA) SG16.17 antibody was used at a concentration range of 3.8-0.002 μg/mL. […] Supernatants were subsequently analyzed for IFNγ and IL2 using the Meso Scale Discovery V-Plex Human IFN-γ Kit (K151QOD-4) and V-Plex Human IL-2 Kit (K151QQD-4). Briefly, the Proinflammatory Calibrator Blend, Detection Antibody Solution, and Read Buffer were prepared according to manufacturer protocols. […] Read Buffer (150 μL) was added to the plate and the plates were run on the MSD Quickplex SQ 120.
For these experiments, BCMA+ HER2− NCI− H929 and BCMA− HER2+ SKBR3 target cells were used. […] Supernatants were subsequently analyzed for IFNγ using the Meso Scale Discovery V-Plex Human IFN-γ Kit (K151QOD-4). Briefly, the Proinflammatory Calibrator Blend, Detection Antibody Solution, and Read Buffer were prepared according to manufacturer protocols. […]

U266B1 target cells = experiment: Activation markers (CD25, CD69) on ACTR T-cells by flow cytometry; assay type: cell-based, human; conditions: ACTR variant SEQ ID NO: 1, E:T 1:1, 1 μg/mL antibody, 24 hours
Protocol: T-cells (effector; E) and target cells (target; T) were incubated at a 1:1, effector-to-target ratio (30,000 T cells; 30,000 target cells) with 1 μg/mL of anti-BCMA antibodies in a 200-μL reaction volume in RPMI 1640 media supplemented with 10% fetal bovine serum. Reactions were incubated in a CO2 (5%) incubator at 37 degrees C. for 24 hours. Geometric Mean Fluorescence intensity (gMFI) of two activation markers, CD25 and CD69 were determined in the total CD3+ CD16+ ACTR T-cell gate via flow cytometry. Briefly, cells were washed twice in staining buffer before being stained with a Live/Dead eFluor-450 dye for 30 min at 4 degrees C. After incubating in the live/dead cell stain, cells were washed twice and incubated with 100 μL of an antibody cocktail consisting of AF488-conjugated anti-human CD3 antibody, APC-conjugated anti-human CD16 antibody, PerCP-Cy5.5-conjugated anti-human CD25 antibody, and BV510-conjugated anti-human CD69 antibody. Subsequently, cells were washed twice, fixed, permeabilized, and stained for intracellular molecules prior to detection via flow cytometry. Flow cytometry gating on CD3+ CD16+ ACTR T-cells was performed after doublet and dead cell exclusion.

B1: cSG16.45SEA: afucosylated (SEA) version of the chimeric SG16.45 anti-BCMA antibody (antibody, V domains shown)
VH: EVQLVESGGGLVQPGRSLKLSCVASGFTFNDHWMTWIRQAPGRGLEWISSITNTGGATYYLDSVKGRFTISRDNAKSTLYLQMNSLRSEDTATYYCTSPGLYFDYWGQGVMVTVSS
VL: EIVLTQSPTTTAASPGEKVTITCLATSSVSVMYWYQHKSGASPKLLIYSTSSLASGVPDRFSGSGSGTSYSLTINTMEAEDAATYYCHQWSSDPPTFGSGTKLEIKR
NCI-H929 target cells
  ACTR T-cell IFNγ and IL2 release: increased potency in cytokine release when compared to their fucosylated counterparts
U266B1 target cells
  levels of activation markers CD25 and CD69 (gMFI) on ACTR T-cells: enhanced expression of CD25 and CD69 when compared to incubations with their fucosylated counterparts
